The values below come from the supplement of paper PMC11246515.

± gives the standard deviation of the averaged measurements.

This data set is described as follows: total protein half-life in vivo (active degradation + dilution); higher = more stable protein.
Setting [1] is: E. coli NCM3722 delta-clpP delta-lon delta-hslV, growth: N-lim chemostat, doubling time 6 h.
[2] abbreviates: E. coli NCM3722 delta-clpP, growth: N-lim chemostat, doubling time 6 h.
Setting [3] is: E. coli NCM3722 delta-hslV, growth: N-lim chemostat, doubling time 6 h.
[4] abbreviates: E. coli NCM3722 delta-lon, growth: N-lim chemostat, doubling time 6 h.
[5] abbreviates: E. coli NCM3722 delta-smpB, growth: N-lim chemostat, doubling time 6 h.
The mark [6] stands for this setting: wild type E. coli NCM3722, growth: C-lim chemostat, doubling time 3 h.
Where [7] appears, read: wild type E. coli NCM3722, growth: C-lim chemostat, doubling time 6 h.
The mark [8] stands for this setting: wild type E. coli NCM3722, growth: C-lim chemostat, doubling time 12 h.
Where [9] appears, read: wild type E. coli NCM3722, growth: N-lim chemostat, doubling time 6 h.
Setting [10] is: wild type E. coli NCM3722, growth: N-lim chemostat, doubling time 12 h.
The mark [11] stands for this setting: wild type E. coli NCM3722, growth: P-lim chemostat, doubling time 6 h.
[12] abbreviates: wild type E. coli NCM3722, growth: P-lim chemostat, doubling time 12 h.

For “MATIKDVAKRANVSTTTVSHVINKTRFVAEETRNAVWAAIKELHYSPSAVARSLKVNHTKSIGLLATSSEAAYFAEIIEAVEKNCFQKGYTLILGNAWNNLEKQRAYLSMMAQKRVDGLLVMCSEYPEPLLAMLEEYRHIPMVVMDWGEAKADFTDAVIDNAFEGGYMAGRYLIERGHREIGVIPGPLERNTGAGRLAGFMKAMEEAMIKVPESWIVQGDFEPESGYRAMQQILSQPHRPTAVFCGGDIMAMGALCAADEMGLRVPQDVSLIGYDNVRNARYFTPALTTIHQPKDSLGETAFNMLLDRIVNKREEPQSIEVHPRLIERRSVADGPFRDYRR [P0ACP7]”, the “total protein half-life in vivo” value reads like this: under setting [1], 5.38 ± 0.92 h; under setting [2], 5.291 ± 0.032 h; under setting [3], 4.538 ± 0.044 h; under setting [4], 5.39 ± 0.36 h; under setting [5], 4.55 ± 0.3 h; under setting [6], 3.02 ± 0.049 h. Further, the “total protein half-life in vivo” value was 5.87 ± 0.35 h under setting [7]; 10.4 ± 1.1 h under setting [8]; 5.02 ± 0.61 h under setting [9]; 7.74 ± 1.6 h under setting [10]; 5.29 ± 0.41 h under setting [11]; 10.9 ± 1.4 h under setting [12].

Turning to “MDSQRNLLVIALLFVSFMIWQAWEQDKNPQPQAQQTTQTTTTAAGSAADQGVPASGQGKLISVKTDVLDLTINTRGGDVEQALLPAYPKELNSTQPFQLLETSPQFIYQAQSGLTGRDGPDNPANGPRPLYNVEKDAYVLAEGQNELQVPMTYTDAAGNTFTKTFVLKRGDYAVNVNYNVQNAGEKPLEISSFGQLKQSITLPPHLDTGSSNFALHTFRGAAYSTPDEKYEKYKFDTIADNENLNISSKGGWVAMLQQYFATAWIPHNDGTNNFYTANLGNGIAAIGYKSQPVLVQPGQTGAMNSTLWVGPEIQDKMAAVAPHLDLTVDYGWLWFISQPLFKLLKWIHSFVGNWGFSIIIITFIVRGIMYPLTKAQYTSMAKMRMLQPKIQAMRERLGDDKQRISQEMMALYKAEKVNPLGGCFPLLIQMPIFLALYYMLMGSVELRQAPFALWIHDLSAQDPYYILPILMGVTMFFIQKMSPTTVTDPMQQKIMTFMPVIFTVFFLWFPSGLVLYYIVSNLVTIIQQQLIYRGLEKRGLHSREKKKS”, the “total protein half-life in vivo” value runs as follows: under setting [1], 6.9 ± 1.3 h; under setting [2], 6.01 ± 0.51 h; under setting [3], 6.03 ± 0.043 h; under setting [4], 6.29 ± 0.36 h; under setting [5], 6.08 ± 0.42 h; under setting [6], 3.2 ± 0.74 h. Also, the “total protein half-life in vivo” value turned out to be 6.37 ± 1.8 h under setting [7]; 6.08 ± 0.64 h under setting [9]; 12.2 ± 0.55 h under setting [10]; 6.66 ± 0.93 h under setting [11]; 12.6 ± 0.7 h under setting [12].

Turning to “MTALNKKWLSGLVAGALMAVSVGTLAAEQKTLHIYNWSDYIAPDTVANFEKETGIKVVYDVFDSNEVLEGKLMAGSTGFDLVVPSASFLERQLTAGVFQPLDKSKLPEWKNLDPELLKLVAKHDPDNKFAMPYMWATTGIGYNVDKVKAVLGENAPVDSWDLILKPENLEKLKSCGVSFLDAPEEVFATVLNYLGKDPNSTKADDYTGPATDLLLKLRPNIRYFHSSQYINDLANGDICVAIGWAGDVWQASNRAKEAKNGVNVSFSIPKEGAMAFFDVFAMPADAKNKDEAYQFLNYLLRPDVVAHISDHVFYANANKAATPLVSAEVRENPGIYPPADVRAKLFTLKVQDPKIDRVRTRAWTKVKSGK”, the “total protein half-life in vivo” value by setting is: under setting [1], 4.64 ± 0.23 h; under setting [2], 6.13 ± 0.89 h; under setting [3], 6.35 ± 0.38 h; under setting [4], 7 ± 1.2 h; under setting [5], 5.81 ± 0.13 h; under setting [6], 2.94 ± 0.29 h. In addition, the “total protein half-life in vivo” value turned out to be 6.34 ± 0.41 h under setting [7]; 13 ± 0.15 h under setting [8]; 6.215 ± 0.018 h under setting [9]; 12.89 ± 0.11 h under setting [10]; 6.46 ± 0.65 h under setting [11]; 13.7 ± 1.1 h under setting [12].

As for “MHLLVHPNGSKYWRLQYRYEGKQKMLALGVYPEITLADARVRRDEARKLLANGVDPGDKKKNDKVEQSKARTFKEVAIEWHGTNKKWSEDHAHRVLKSLEDNLFAALGERNIAELKTRDLLAPIKAVEMSGRLEVAARLQQRTTAIMRYAVQSGLIDYNPAQEMAGAVASCNRQHRPALELKRIPELLTKIDSYTGRPLTRWAIELTLLIFIRSSELRFARWSEIDFEASIWTIPPEREPIPGVKHSHRGSKMRTTHLVPLSTQALAILKQIKQFYGAHDLIFIGDHDSHKPMSENTVNSALRVMGYDTKVEVCGHGFRTMACSSLVESGLWSRDAVERQMSHMARNSVRAAYIHKAEHLEERRLMLQWWADFLDVNRERFISPFEYAKINNPLKQ”, the “total protein half-life in vivo” value runs as follows: under setting [1], 5.06 ± 0.41 h; under setting [2], 4.91 h; under setting [5], 2.44 h; under setting [7], 5.13 h; under setting [8], 13.3 h; under setting [11], 4.82 h.

Consider “MRRLLSVAPVLLWLITPLAFAQLPGITSQPLPGGGQSWSLPVQTLVFITSLTFIPAILLMMTSFTRIIIVFGLLRNALGTPSAPPNQVLLGLALFLTFFIMSPVIDKIYVDAYQPFSEEKISMQEALEKGAQPLREFMLRQTREADLGLFARLANTGPLQGPEAVPMRILLPAYVTSELKTAFQIGFTIFIPFLIIDLVIASVLMALGMMMVPPATIALPFKLMLFVLVDGWQLLVGSLAQSFYS [P0AC05]”, for which the “total protein half-life in vivo” value by setting is: under setting [6], 2.76 h; under setting [7], 6.05 h; under setting [8], 9.42 h.
